# Assay results taken from patent publication US20120264231A1, “ASSAY FOR ORAI CALCIUM CHANNEL REGULATORS” (IMMUNE DISEASE INSTITUTE, INC., priority 2009, published 2012).
# Molecular target: T1, ORAI1 (R91W) (Homo sapiens, UniProt Q96D31, R91W)
# T1 construct: the ORAI functional fragment is ORAI1 (65-301), ORAI1 (65-87), or full length ORAI1; made in house; host or cells: S. cerevisiae NY17 (sec6-4), isolated secretory vesicles
# Test: Cameleon D3 cpV intravesicular Ca^2+ assay, vesicles with ORAI1 (R91W)
# Assay type: biochemical
# Conditions: vesicles containing ORAI1 (R91W)
# From the text: Confirmation that Ca^2+ release from the vesicles was due to gating of the ORAI 1 channel was sought. […] It was concluded that the in vitro assay reflects STIM 1-dependent gating of ORAI1 and Ca^2+ flux through the ORAI1 channel pore.
# The yeast expression vector pBEVY-GU60 allows for simultaneous expression of two transgenes by means of the bidirectional GAL1-10 promoter. The FRET-based calcium sensors D3 cpV and D4 cpV53 were fused at the N-terminus with the S. cerevisiae α-mating factor secretion signal (Bitter, G. A., et al., Proc Natl Acad Sci USA 81, 5330-5334 (1984)), which directs proteins into the secretory pathway, and introduced into pBEVY-GU in the following way. Vector pPIC9 (Invitrogen) served as template for PCR amplification of the α-mating factor secretion signal (5′ primer: […] (SEQ ID NO: 2); 3′ primer: […] (SEQ ID NO: 3)), introducing an EcoRI site at the 5′ end, and a sequence complementary to that encoding the N-terminus of the calcium sensor at the 3′ end. DNA encoding the N-terminal portion of the calcium sensor D3 cpV, comprising CFP, was amplified by PCR (5′ primer: […] (SEQ ID NO: 4); 3′ primer: […] (SEQ ID NO: 5)), introducing an SphI site followed by a stop codon and a NotI site at the 3′ end of the resulting DNA fragment. […]
# T1 sequence (Q96D31 2-301 R91W): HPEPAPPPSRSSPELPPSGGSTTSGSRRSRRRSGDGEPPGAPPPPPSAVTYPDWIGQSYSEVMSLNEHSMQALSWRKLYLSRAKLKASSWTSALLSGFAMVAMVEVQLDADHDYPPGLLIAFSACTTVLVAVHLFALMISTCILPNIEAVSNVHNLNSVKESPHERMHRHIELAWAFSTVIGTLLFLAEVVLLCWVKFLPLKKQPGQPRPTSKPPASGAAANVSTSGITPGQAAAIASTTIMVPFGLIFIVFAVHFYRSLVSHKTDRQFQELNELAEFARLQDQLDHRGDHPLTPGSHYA
substance,measurement,value
"STIM1^CT: cytoplasmic region of STIM1, mouse residues 233-685, His-tagged recombinant protein expressed in E coli",Ca^2+ release from vesicles,did not elicit Ca^2+ release
